Reference: patent US20120149645A1, “COMPOSITIONS AND MODULATION OF MYOCYTE ENHANCER FACTOR 2 (MEF2)” (EMORY UNIVERSITY, priority 2010, published 2012)

Assays:
[1] = system: human mtDNA fragment containing mitochondrial L-strand promoter (LSP) and ND6 gene; test: In vitro mtDNA L-strand transcription assay; format: biochemical
Text: (§1) (A) Mitochondria-targeting MEF2D (Mt2D) and mitochondria-targeting dominant-negative MEF2D (Mt2Ddn), which lacks the transactivation domain (TAD). […] Control indicates the control vector group. (C) Effects of Mt2D or Mt2Ddn on ND6 expression in SN4741 cells. Over-expression of Mt2Ddn in SN4741 cells reduced ND6 but not PPAR-γ coactivator 1 (PGC1) expression by western blotting (n=4, **p<0.01). Control indicates the control vector group. (D) Effects of over-expression of Mt2D or Mt2Ddn on mRNA levels of mitochondria encoded genes. […] Control indicates the control vector group. (E) Effects of Mt2D or Mt2Ddn on mtDNA L-strand transcription initiation in vitro (n=3; **P<0.01). A human mtDNA fragment containing mitochondrial L-strand promoter (LSP) and ND6 gene was used in the in vitro transcription assay. […] (F) Effects of Mt2D or Mt2Ddn on mtDNA de novo transcription in vivo (n=3; **P<0.01). Control (−) is without primers. Control (+) indicates the control vector group.

SN4741 cells = test: PI (propidium iodide) staining of cell death; format: cell-based, mouse; settings: SN4741 cells infected with lentivirus 24 hours, then MPP+ 5 μM for 24 hours
Protocol: (A) SN4741 cells were infected with lentiviruses for 24 hours and followed by exposure to MPP+ (5 μM) for 24 hours. Cell death was analyzed by PI (propidium iodide) staining (n=4; scale bar, 30 μm). The control indicated the control vector. (B) Quantification of the number of PI positive cells in (A) (n=50 cells, **P<0.01). Experiments were repeated four times. Control indicates the group transfected with the control vector.

MEF2D and ND6 proteins = test: Western blotting of MEF2D, ND6 and PGC1 protein levels in SN4741 cells; format: cell-based, mouse; settings: construct over-expressed in SN4741 cells
Text: as §1
(A) Reduced binding of MEF2D to ND6 after neurotoxin treatment. SN4741 cells were treated with MPP+ (25 μM) or rotenone (Rot, 100 nM) for 12 hours. […] Control indicates untreated. […] Control indicates untreated. (C) Immunocytochemical analysis of mitochondrial MEF2D after MPP+ and rotenone treatment. SN4741 cells treated as described in (A) were stained (scale bar, 10 μm). […] Experiments were repeated four times. Control indicates untreated. […] SN4741 cells were treated with MPP+ after infection with the control, Mt2Ddn or Mt2DVP16 or MtND6 lentiviruses for 24 hours (upper graph: different doses of MPP+ for 24 hours; lower graph: 5 μM of MPP+ for different times). Cell viability was measured by WST-1 assay (n=4; *p<0.05; **P<0.01). Control indicates the control vector group.
(A) Diagrams of Mt2DVP16 and MtND6. Mt2DVP16 was constructed by fusion of transactivation domain (TAD) of VP16 with DNA-binding domain of MEF2D and a mitochondria-targeting sequence (Mito). […] (C) Over-expression of Mt2DVP16 attenuated MEF2D siRNA-induced reduction of ND6 expression (n=3, **P<0.01).

B1: Mt2Ddn: Mitochondria-targeting dominant-negative MEF2D: mouse MEF2D 1-131aa with mitochondria-targeting signal, lacks the transactivation domain (protein, UniProt Q63943 1-131, looked up, fragment)
chain: MGRKKIQIQRITDERNRQVTFTKRKFGLMKKAYELSVLCDCEIALIIFNHSNKLFQYASTDMDKVLLKYTEYNEPHESRTNADIIETLRKKGFNGCDSPEPDGEDSLEQSPLLEDKYRRASEELDGLFRRY
modifications: mitochondria-targeting signal added
level of L-strand promoter (LSP) transcripts [1]: reduces | number of propidium iodide (PI) positive cells (SN4741 cells): increases | ND6 protein level / expression (MEF2D and ND6 proteins): marked reduction | level of PGC1 (nuclear target of MEF2) (MEF2D and ND6 proteins): did not alter
